We go through three substances from patent publication US5310662.

A value given as a limit tells only on which side of the number the result lay.

The test system of data set [1] is hGR G421 421G (Homo sapiens). Conditions: immunoprecipitation DNA binding; transcription <1.
The test system of data set [2] is hGR G423 423G (Homo sapiens). Particulars: immunoprecipitation DNA binding; transcription <1.
The subject of data set [3] is hGR G424 424G (Homo sapiens). Particulars: immunoprecipitation DNA binding; transcription <1.
Data set [4] has as its system hGR G426 D426G (Homo sapiens). Particulars: immunoprecipitation DNA binding; transcription 75.
Data set [5] concerns hGR G431 C431G (Homo sapiens). Conditions: immunoprecipitation DNA binding; transcription 80.
The test system of data set [6] is hGR G432 432G (Homo sapiens). Conditions: immunoprecipitation DNA binding; transcription 10.
Data set [7] relates to hGR G433 433G (Homo sapiens). Conditions: immunoprecipitation DNA binding; transcription 2.
In data set [8] the test system is hGR G437 437G (Homo sapiens). Particulars: immunoprecipitation DNA binding; transcription 20.
Data set [9] deals with hGR G438 438G (Homo sapiens). Conditions: immunoprecipitation DNA binding; transcription <1.
In data set [10] the test system is hGR G441 441G (Homo sapiens). Conditions: immunoprecipitation DNA binding; transcription <1.
Data set [11] has as its system hGR G442 K442G (Homo sapiens). Particulars: immunoprecipitation DNA binding; transcription <1; specificity minimally affected.
Data set [12] has as its system hGR G444 444G (Homo sapiens). Conditions: immunoprecipitation DNA binding; transcription <1.
The test system of data set [13] is hGR G445 445G (Homo sapiens). Particulars: immunoprecipitation DNA binding; transcription <1.
Data set [14] deals with hGR G446 446G (Homo sapiens). Particulars: immunoprecipitation DNA binding; transcription 40; may be unstable in vitro.
For data set [15], the system named is hGR G447 447G (Homo sapiens). Conditions: immunoprecipitation DNA binding; transcription <1.
Data set [16] deals with hGR G450 450G (Homo sapiens). Particulars: immunoprecipitation DNA binding; transcription 60.
Data set [17] relates to hGR G453 453G (Homo sapiens). Conditions: immunoprecipitation DNA binding; transcription 90.
Data set [18] has as its system hGR G455 455G (Homo sapiens). Particulars: immunoprecipitation DNA binding; transcription 80; may be unstable in vitro.
Data set [19] relates to hGR G457 457G (Homo sapiens). Conditions: immunoprecipitation DNA binding; transcription <1.
Data set [20] concerns hGR G460 460G (Homo sapiens). Particulars: immunoprecipitation DNA binding; transcription 55.
Data set [21] deals with hGR G462 462G (Homo sapiens). Conditions: immunoprecipitation DNA binding; transcription 80.
Data set [22] has as its system hGR G463 463G (Homo sapiens). Conditions: immunoprecipitation DNA binding; transcription <1.
For data set [23], the system named is hGR G465 465G (Homo sapiens). Particulars: immunoprecipitation DNA binding; transcription 1.
The subject of data set [24] is hGR G467 467G (Homo sapiens). Conditions: immunoprecipitation DNA binding; transcription 40; may be unstable in vitro.
For data set [25], the system named is hGR G470 470G (Homo sapiens). Particulars: immunoprecipitation DNA binding; transcription 3.
The subject of data set [26] is hGR G471 471G (Homo sapiens). Conditions: immunoprecipitation DNA binding; transcription 10.
In data set [27] the test system is hGR G473 473G (Homo sapiens). Conditions: immunoprecipitation DNA binding; transcription <1.
In data set [28] the test system is hGR G474 474G (Homo sapiens). Conditions: immunoprecipitation DNA binding; transcription 60.
In data set [29] the test system is hGR G476 476G (Homo sapiens). Conditions: immunoprecipitation DNA binding; transcription <1.
Data set [30] concerns hGR G477 477G (Homo sapiens). Particulars: immunoprecipitation DNA binding; transcription <1.
Data set [31] relates to hGR G479 479G (Homo sapiens). Conditions: immunoprecipitation DNA binding; transcription 65.
Data set [32] has as its system hGR G480 480G (Homo sapiens). Particulars: immunoprecipitation DNA binding; transcription 90.
The test system of data set [33] is hGR G481 481G (Homo sapiens). Particulars: immunoprecipitation DNA binding; transcription <1.
The subject of data set [34] is hGR G486 486G (Homo sapiens). Conditions: immunoprecipitation DNA binding; transcription 10; may be unstable in vitro.
Data set [35] concerns hGR delta420-451 del420-451 (positions given are the non-deleted residues at the junction) (Homo sapiens). Conditions: immunoprecipitation DNA binding; transcription <1.
The subject of data set [36] is hGR delta450-487 del450-487 (positions given are the non-deleted residues at the junction) (Homo sapiens). Particulars: immunoprecipitation DNA binding; transcription <1.
Data set [37] concerns hGR-SB (human glucocorticoid receptor, wild-type-equivalent parent) (Homo sapiens). Particulars: immunoprecipitation DNA binding, reference; transcription 100.
Data set [38] has as its system G-gal-G (hGR with DNA-binding domain replaced by GAL4 residues 1-74) (Homo sapiens / Saccharomyces cerevisiae). The data set is described as follows: cell_activity.
For data set [39], the system named is GAL4 (Saccharomyces cerevisiae). The data set can be described thus: cell_activity. Conditions: CAT reporter; lost on deletion of the GAL4 site.

In the case of GRE-containing DNA fragment, the binding signal in [1] is < 1 % of hGR-SB; in data set [2] it was < 1 % of hGR-SB; in data set [3], 1 % of hGR-SB; in data set [4], 75 % of hGR-SB; in [5] it was 10 % of hGR-SB; in data set [6] it was 30 % of hGR-SB. For the same substance, the binding signal is 1 % of hGR-SB in [7]; 8 % of hGR-SB in data set [8]; < 1 % of hGR-SB in data set [9]; < 1 % of hGR-SB in data set [10]; 60 % of hGR-SB in [11]; 1 % of hGR-SB in data set [12]. In addition, the binding signal in data set [13] was < 1 % of hGR-SB; in [14], 6 % of hGR-SB; in data set [15], 2 % of hGR-SB; in [16], 50 % of hGR-SB; in data set [17], 60 % of hGR-SB; in [18], 6 % of hGR-SB. Besides, the binding signal in data set [19] is 2 % of hGR-SB; in [20], 90 % of hGR-SB; in [21] it was 40 % of hGR-SB; in data set [22], 1 % of hGR-SB; in data set [23] it was 1 % of hGR-SB; in data set [24], 6 % of hGR-SB. For the same substance, the binding signal is 4 % of hGR-SB in data set [25]; 6 % of hGR-SB in [26]; < 1 % of hGR-SB in data set [27]; 95 % of hGR-SB in data set [28]; < 1 % of hGR-SB in data set [29]; 1 % of hGR-SB in data set [30]. Besides, the binding signal in data set [31] is 40 % of hGR-SB; in [32], 50 % of hGR-SB; in data set [33], 3 % of hGR-SB; in [34], 1 % of hGR-SB; in data set [35] it was 1 % of hGR-SB; in [36], 1 % of hGR-SB. Also, the binding signal in data set [37] came to 100%.

The substance “deltaMTV-CAT promoter (GREs deleted, no GAL4 site)” returned an activity (% of deltaMTV-GAL-CAT) in data set [38] (possible cryptic GAL4 site) of 5.

Turning to “deltaMTV-GAL-CAT promoter with synthetic GAL4 site 17MX”, the activity in data set [38] (CAT reporter, hormone dependent) is 500 fold; in data set [39], 20 fold.
